System: T1, His6-SACE_3446B (Saccharopolyspora erythraea A226), ORF:3b7da887
T1 sequence: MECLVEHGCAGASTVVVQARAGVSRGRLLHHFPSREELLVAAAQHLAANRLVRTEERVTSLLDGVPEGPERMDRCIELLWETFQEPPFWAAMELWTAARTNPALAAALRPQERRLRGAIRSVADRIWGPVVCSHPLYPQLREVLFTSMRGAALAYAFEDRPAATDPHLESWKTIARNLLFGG
Experiment: EMSA
Settings: 10 mM Tris pH 7.5, 5 mM MgCl2, 50 mM EDTA ([…]

GCGAGTGTCCGTTCGAGTGGCGGCTTGCGCCCGATGCTAGTCGCGGTTGATCGGCGATCGCAGGTGCACGCGGTCGATCTTGACGGCTGGCGAGAGGTGCGGGGAGGATCTGACCGACGCGGTCCACACGTGGCACCGCGATGCTGTTGTGGGCTGGACAATCGTGCCGGTTGGTAGGATCCAGCG (double strand) [ermE promoter]
binding: no binding

GCGTCCCCCTACTCGACGACCACGCAATGGGCGAACAATATAGGAAGGATCAAGAGGTTGACATCGCCTCGTCGAGCCAACGAACCTGTGAACATCTGCATGTTGACAAGATCAACGGCGGCTACCTACTGTGGTGGCCCAGTGACGGGTTGCCGCACATCGCGCTGGGGAGATTCTTTGAATTTCGCCCGTAGCACCGACCTGGAAAGCGAGCAAATGCTCCG (double strand) [eryAI promoter]
binding: no binding

— paper PMC5640589
